Measurements reported in patent US20230227548A1.

Target: murine GPRC5D (murine) (UniProt Q9JIL6)
Experiment: FACS, murine GPRC5D cells

Sequence of murine GPRC5D (murine) (Q9JIL6 whole entry): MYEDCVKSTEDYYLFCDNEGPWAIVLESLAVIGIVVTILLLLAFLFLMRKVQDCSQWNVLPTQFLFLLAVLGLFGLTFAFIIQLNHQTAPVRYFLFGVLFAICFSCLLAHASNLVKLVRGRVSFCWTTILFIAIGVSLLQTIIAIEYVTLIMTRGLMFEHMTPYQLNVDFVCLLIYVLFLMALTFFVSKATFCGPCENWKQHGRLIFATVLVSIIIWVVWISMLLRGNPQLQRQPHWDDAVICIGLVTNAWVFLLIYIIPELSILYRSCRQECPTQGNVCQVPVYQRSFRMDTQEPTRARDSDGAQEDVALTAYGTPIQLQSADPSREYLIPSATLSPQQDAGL

B1: GCDB72 (bispecific antibody, IgG4, V domains shown)
VH 1: EVQLVESGGGLVQPGGSLRLSCAASGFTFNTYAMNWVRQAPGKGLEWVARIRSKYNNYATYYAASVKGRFTISRDDSKNSLYLQMNSLKTEDTAVYYCARHGNFGNSYVSWFAYWGQGTLVTVSS
VL 1: QTVVTQEPSLTVSPGGTVTLTCRSSTGAVTTSNYANWVQQKPGQAPRGLIGGTNKRAPGTPARFSGSLLGGKAALTLSGVQPEDEAEYYCALWYSNLWVFGGGTKLTVL
VH 2: QVQLVQSGAEVKKPGASVKVSCKASGYSFTGYTMNWVRQAPGQGLEWMGLINPYNSDTNYAQKLQGRVTMTTDTSTSTAYMELRSLRSDDTAVYYCARVALRVALDYWGQGTLVTVSS
VL 2: DIQMTQSPSSLSASVGDRVTITCKASQNVATHVGWYQQKPGKAPKRLIYSASYRYSGVPSRFSGSGSGTEFTLTISNLQPEDFATYYCQQYNRYPYTFGQGTKLEIK
Question: For B1, which MFI is on record?
Answer: 481
